Source: PMC5705538 (Journal of molecular biology, 2017)
Values joined by “and” are separate entries in the source; they are usually repeats but may differ in a detail not shown here. Equal entries are not always repeated. One block for each binder: values may come before it.

Experiments:
SEC-MALS = molecular target: the molecule itself; test: SEC-MALS
M1-linked di-ubiquitin = M1-linked di-ubiquitin (UniProt P0CG48 1-76; P0CG48 1-76); test: SEC

B1: NEMO (112–350) (domain or fragment, human, UniProt Q9Y6K9 112-350, looked up)
chain: LDLKRQKEQALREVEHLKRCQQQMAEDKASVKAQVTSLLGELQESQSRLEAATKECQALEGRARAASEQARQLESEREALQQQHSVQVDQLRMQGQSVEAALRMERQAASEEKRKLAQLQVAYHQLFQEYDNHIKSSVVGSERKRGMQLEDLKQQLQQAEEALVAKQEVIDKLKEEAEQHKIVMETVPVLKAQADIYKADFQAERQAREKLAEKKELLQEQLEQLQREYSKLKASCQES
stoichiometry N (SEC-MALS): 2

binding result (M1-linked di-ubiquitin): binds
B2: NEMO (150–350) (domain or fragment, human, UniProt Q9Y6K9 150-350, looked up)
chain: LGELQESQSRLEAATKECQALEGRARAASEQARQLESEREALQQQHSVQVDQLRMQGQSVEAALRMERQAASEEKRKLAQLQVAYHQLFQEYDNHIKSSVVGSERKRGMQLEDLKQQLQQAEEALVAKQEVIDKLKEEAEQHKIVMETVPVLKAQADIYKADFQAERQAREKLAEKKELLQEQLEQLQREYSKLKASCQES
stoichiometry N (SEC-MALS): 2 and 4

binding result (M1-linked di-ubiquitin): binds
B3: NEMO UBAN-ZF (246–419) (domain or fragment, human, UniProt Q9Y6K9 246-419, looked up)
chain: KSSVVGSERKRGMQLEDLKQQLQQAEEALVAKQEVIDKLKEEAEQHKIVMETVPVLKAQADIYKADFQAERQAREKLAEKKELLQEQLEQLQREYSKLKASCQESARIEDMRKRHVEVSQAPLPPAPAYLSSPLALPSQRRSPPEEPPDFCCPKCQYQAPDMDTLQIHVMECIE

binding result (M1-linked di-ubiquitin): binds
B4: NEMO UBAN (192–350) (domain or fragment, human, UniProt Q9Y6K9 192-350, looked up)
chain: QQQHSVQVDQLRMQGQSVEAALRMERQAASEEKRKLAQLQVAYHQLFQEYDNHIKSSVVGSERKRGMQLEDLKQQLQQAEEALVAKQEVIDKLKEEAEQHKIVMETVPVLKAQADIYKADFQAERQAREKLAEKKELLQEQLEQLQREYSKLKASCQES
